B1: P5M (probe 5, AUUUA to AGGGA) (ssRNA)
RNA: GGGAGCAGUUAACCUUCAAGACAUUCCACUUGCUAAAAUUAGGGAUUUUGUAAGGAGAGGUUUUAAUUAAAACAAAAAAAAA
B2: P6M (probe 6, AUUUA to AGGGA) (ssRNA)
RNA: GGGGUUAAAUUAUGUUCUUAACUGUAACCAGUUUUUUUUUAGGGAUCUCUUUAAUCUUUUUUUAUUAUUAAAAGCAAGUUUC

Target: TTP (tristetraprolin), GST-TTP (UniProt P26651 1-326)
Experiment: EMSA; 10 mM Tris-HCl pH 7.5, 50 mM KCl, 1 mM DTT, 5% glycerol, 500 ug/ml tRNA, 40 ng probe in 20 ul, 20 min at 4 C (stated for lysate EMSA); 6% native PAGE on ice
Details: protein: commercial; (GST fusion); label: 3' biotin

Chain of TTP (tristetraprolin), GST-TTP (P26651 whole entry): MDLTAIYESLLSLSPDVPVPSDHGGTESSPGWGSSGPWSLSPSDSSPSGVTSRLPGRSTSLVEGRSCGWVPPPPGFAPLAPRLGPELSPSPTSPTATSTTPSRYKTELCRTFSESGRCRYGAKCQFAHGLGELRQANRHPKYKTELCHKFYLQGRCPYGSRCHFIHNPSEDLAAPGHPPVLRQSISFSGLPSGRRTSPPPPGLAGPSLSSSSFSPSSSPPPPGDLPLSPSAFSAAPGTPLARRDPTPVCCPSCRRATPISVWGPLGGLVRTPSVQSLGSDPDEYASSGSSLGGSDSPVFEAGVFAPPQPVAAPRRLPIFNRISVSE

Binder | binding result
B1 | no binding
B2 | no binding
